The results in this text go back to the supplement of paper PMC10567573.

First the molecules themselves.
B1: FCHO1 (parent)
chain: DKLALCHLELTRKLQDLIKDVLRY
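Also: lentivirally expressed fusions sorted by FACS into six bins by GFP to DsRed ratio, PSI derived from sequencing read proportions per bin multiplied by bin number.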

Variants of B1 are the subject of the data set. Kind of data set: protein stability index of a GFP-peptide fusion (GPS, HEK-293T) (PSI 1-6); higher = more stable. The note with it: c terminus: a fixed tail appended.
In the case of DKLALCHLELTRKLWDLIKDVLRY [Q15W], the protein stability index came out at 2.34.
The same measure for DKLALCHLELTRKLPDLIKDVLRY [Q15P]: 1.36.
Next, DKLALCHLELTRKLCDLIKDVLRY [Q15C]: 2.26; DKLALCHLELTRKLLDLIKDVLRY [Q15L]: 3.4.
On to DKLALCHLELTRKLYDLIKDVLRY [Q15Y], for which the protein stability index was 2.79.
The same measure for DKLALCHLELTRKLRDLIKDVLRY [Q15R]: 2.88.
Next, DKLALCHLELTRKLVDLIKDVLRY [Q15V]: 1.95; DKLALCHLELTRKLNDLIKDVLRY [Q15N]: 2.84; DKLALCHLELTRKLIDLIKDVLRY [Q15I]: 3.87.
Next, DKLALCHLELTRKDQDLIKDVLRY [L14D]: 3.23; DKLALCHLELTRKFQDLIKDVLRY [L14F]: 1.12.
DKLALCHLELTRKKQDLIKDVLRY [L14K]: the protein stability index worked out at 1.95.
The same measure for DKLALCHLELTRKPQDLIKDVLRY [L14P]: 2.99; for DKLALCHLELTRKMQDLIKDVLRY [L14M]: 4.05.
Regarding DKLALCHLELTRKEQDLIKDVLRY [L14E], the protein stability index amounted to 2.3.
For the variant DKLALCHLELTRKQQDLIKDVLRY [L14Q], the protein stability index was determined as 2.14.
Next, DKLALCHLELTRKSQDLIKDVLRY [L14S]: 2.13; DKLALCHLELTRKYQDLIKDVLRY [L14Y]: 1.49.
The same measure for DKLALCHLELTRKRQDLIKDVLRY [L14R]: 2.6; for DKLALCHDELTRKLQDLIKDVLRY [L8D]: 2.63.
Consider DKLALCHHELTRKLQDLIKDVLRY [L8H], for which the protein stability index came to 3.96.
The same measure for DKLALCHNELTRKLQDLIKDVLRY [L8N]: 2.36; for DKLALCHKELTRKLQDLIKDVLRY [L8K]: 2.72.
Next, DKLALCHGELTRKLQDLIKDVLRY [L8G]: 2.92; DKLALCHFELTRKLQDLIKDVLRY [L8F]: 2.65; DKLALCHIELTRKLQDLIKDVLRY [L8I]: 1.79.
Next, DKLALCHLELTRLLQDLIKDVLRY [K13L]: 1.52; DKLALCHLELTRPLQDLIKDVLRY [K13P]: 2.54.
With DKLALCHLELTRRLQDLIKDVLRY [K13R], the protein stability index stood at 2.23.
Next, DKLALCHLELTRGLQDLIKDVLRY [K13G]: 2.47.
Next, DKLALCHLELTRILQDLIKDVLRY [K13I]: 1.15; DKLALCHLELTRALQDLIKDVLRY [K13A]: 1.46; DKLALCHLELTRYLQDLIKDVLRY [K13Y]: 2.74.
Next, DKLALCHLELTRKLQDLIKDVPRY [L22P]: 3.16; DKLALCHLELTRKLQDLIKDVSRY [L22S]: 2.44; DKLALCHLELTRKLQDLIKDVARY [L22A]: 2.73.
DKLALCHLELTRKLQDLIKDVQRY [L22Q]: the protein stability index amounted to 2.92.
Next, DKLALCHLELTRKLQDLIKDVMRY [L22M]: 2.35.
Take DKLALCHLELTRKLQDLIKDVERY [L22E]: the protein stability index amounted to 2.67.
The same measure for DKLALCHLELTRKLQDLIKMVLRY [D20M]: 1.9.
The same measure for DKLALCHLELTRKLQDLIKLVLRY [D20L]: 2.19; for DKLALCHLELTRKLQDLIKCVLRY [D20C]: 1.11; for DKLALCHLELTRKLQDLIKPVLRY [D20P]: 2.52.
The same measure for DKLALCHLELTRKLQDLIKGVLRY [D20G]: 3.57.
In the case of DKLALCHLELTRKLQDLIKVVLRY [D20V], the protein stability index stood at 2.67.
With DKLALCHLELTRKLQDLIKNVLRY [D20N], the protein stability index amounted to 4.79.
Consider DKLALCHLELTRKLQDLIKFVLRY [D20F], for which the protein stability index is 1.87.
For DKLALCHLELTRKLQDLIKDVLDY [R23D], the protein stability index was 2.08.
Next, DKLALCHLELTRKLQDLIKDVLIY [R23I]: 1.47.
For DKLALCHLELTRKLQDLIKDVLAY [R23A], the protein stability index turned out to be 3.49.
The same measure for DKLALCHLELTRKLQDLIKDVLPY [R23P]: 1.2.
Next, DKLALCHLELTRKLQDLIKDVLLY [R23L]: 2.59.
Regarding DKLALCHLELTRKLQDLIKDILRY [V21I], the protein stability index amounted to 2.97.
In the case of DKLALCHLELTRKLQDLIKDDLRY [V21D], the protein stability index is 1.43.
The same measure for DKLALCHLELTRKLQDLIKDSLRY [V21S]: 1.83; for DKLALCHLELTRKLQDLIKDRLRY [V21R]: 2.
Turning to DKLALCHLELTRKLQDLIKDGLRY [V21G], the protein stability index amounted to 2.84.
The same measure for DKLALCHLELTRKLQDLIKDFLRY [V21F]: 2.25; for DKLALCHLELTRKLQDLIKDELRY [V21E]: 2.24; for DKLALCHLELTRKLQDLIKDNLRY [V21N]: 2.02.
Turning to DSLALCHLELTRKLQDLIKDVLRY [K2S], the protein stability index amounted to 2.21.
The same measure for DDLALCHLELTRKLQDLIKDVLRY [K2D]: 3.04.
The same measure for DALALCHLELTRKLQDLIKDVLRY [K2A]: 1.43; for DMLALCHLELTRKLQDLIKDVLRY [K2M]: 3.83; for DILALCHLELTRKLQDLIKDVLRY [K2I]: 2.57.
As to DLLALCHLELTRKLQDLIKDVLRY [K2L], the protein stability index worked out at 2.64.
On to DKLALCHLELTRKLQDVIKDVLRY [L17V], for which the protein stability index stood at 2.4.
Next, DKLALCHLELTRKLQDQIKDVLRY [L17Q]: 1.35.
The same measure for DKLALCHLELTRKLQDAIKDVLRY [L17A]: 1.42; for DKLALCHLELTRKLQDPIKDVLRY [L17P]: 3.05.
The same measure for DKLALCHLELTRKLQDFIKDVLRY [L17F]: 2.42; for DKLALCHLELTRKLQDKIKDVLRY [L17K]: 2.77.
For DKLALCHLELTRKLQDYIKDVLRY [L17Y], the protein stability index was determined as 3.59.
The same measure for DKLALCHLELTRKLQDNIKDVLRY [L17N]: 2.13.
Next, DKLALCHLELTRKLQDWIKDVLRY [L17W]: 4.39; DKLALCHLELTRKLQDGIKDVLRY [L17G]: 3.64; DKLALCHLELTRKLQDSIKDVLRY [L17S]: 2.04.
Next, DKLALTHLELTRKLQDLIKDVLRY [C6T]: 2.99.
In the case of DKLALKHLELTRKLQDLIKDVLRY [C6K], the protein stability index turned out to be 3.
The same measure for DKLALSHLELTRKLQDLIKDVLRY [C6S]: 3.13.
The same measure for DKLALWHLELTRKLQDLIKDVLRY [C6W]: 2.01; for DKLALCHLELTRKLQDLIPDVLRY [K19P]: 2.36; for DKLALCHLELTRKLQDLIRDVLRY [K19R]: 2.22.
Next, DKLALCHLELTRKLQDLIIDVLRY [K19I]: 2.33; DKLALCHLELTRKLQDLISDVLRY [K19S]: 1.71.
Consider DKLALCHLELTRKLQDLIQDVLRY [K19Q], for which the protein stability index stood at 1.36.
The same measure for DKLALCHLELTRKLQDLIEDVLRY [K19E]: 2.16.
Regarding DKLALCHLELTRKLQDLICDVLRY [K19C], the protein stability index was 2.7.
The same measure for DKLALCHLELTRKLQDLIFDVLRY [K19F]: 1.66.
Next, DKLALCHLELTRKLQDLIMDVLRY [K19M]: 2.52; DKLALCHLELTRKLQDLIHDVLRY [K19H]: 2.18; DKLALCHLELTRKLQDLIDDVLRY [K19D]: 1.78.
Next, DKLALCHLELTRKLQDLDKDVLRY [I18D]: 2.98; DKLALCHLELTRKLQDLFKDVLRY [I18F]: 3.1.
